{"source": "patent US20090233850A1", "key": {"[1]": {"molecular_target": "gp120 on HIV-1 BaL (R5) virus (HIV-1 BaL)", "experiment": "cell-based or functional assay"}, "[2]": {"molecular_target": "recombinant monomeric HIV-1 YU2 gp120, produced in Drosophila S2 cells (HIV-1 YU2) (UniProt P35961)", "experiment": "SPR, Biacore 3000, from the response at 300 nM against the 33 RU expected for 1:1"}, "[3]": {"molecular_target": "recombinant monomeric HIV-1 YU2 gp120, produced in Drosophila S2 cells (HIV-1 YU2) (UniProt P35961)", "experiment": "SPR, Biacore 3000, about 250 RU YU2 gp120 amine-coupled to CM5 chip, CVN in flow, 2B6R reference cell"}, "[4]": {"molecular_target": "recombinant monomeric HIV-1 YU2 gp120, produced in Drosophila S2 cells (HIV-1 YU2) (UniProt P35961)", "experiment": "competition ELISA on plate-adsorbed YU2 gp120; competitor mAb 2G12 at 50 ug/ml; percent of control without CVN"}, "[5]": {"molecular_target": "recombinant monomeric HIV-1 YU2 gp120, produced in Drosophila S2 cells (HIV-1 YU2) (UniProt P35961)", "experiment": "ELISA, 100 ng YU2 gp120 adsorbed on the plate, serial dilutions of CVN, detection with polyclonal anti-CVN, BSA background subtracted"}}}
{"substance": "unlinked CVN and 12p1 (non-covalent mixture) (from UniProt P81180 1-101)", "values": [{"measurement": "boost of efficacy (% inhibition of HIV-1 BaL) of the mixture against CVN alone at the two lowest concentrations, 12p1 at 16-31 uM", "setting": "[1]", "result": 2, "unit": "fold"}, {"measurement": "synergy index of the combination of CVN and 12p1, inhibition of HIV-1 BaL replication in PM-1 cells (gp120 ELISA after 7 days)", "setting": "[1]", "result": "0.3 to 0.5"}]}
{"substance": "cyanovirin-N (CVN), recombinant, periplasmic expression in E. coli, hexa-histidine tagged (from UniProt P81180 1-101)", "values": [{"measurement": "binding stoichiometry (CVN:gp120)", "setting": "[2]", "result": 3}, {"measurement": "SPR response at 300 nM", "setting": "[3]", "result": 95, "unit": "RU"}, {"measurement": "IC50 (read off the curve)", "setting": "[4]", "result": 30, "unit": "nM"}, {"measurement": "EC50 (read off the curve)", "setting": "[5]", "result": 10, "unit": "nM"}]}
